We go through one substance from article PMC2139591.

This assay concerns the target NGF-specific-receptor-like molecule (NSR) from C 1300 neuroblastoma cells (mouse (endogenous in C 1300 NB cells)). The experiment in a line: radioligand binding.

Consider “nerve growth factor (NGF), mouse salivary glands (from UniProt P01139 122-241) (ligand)”, for which the Ka was 1e+07 M⁻¹.
